The record followed here is paper PMC5959942, “Targeting G protein-coupled receptor signaling at the G protein level with a selective nanobody inhibitor” (Nature Communications, 2018).

Experiment [1] addresses T1, bovine Gβ1γ1 dimer (β1γ1 subunits of the visual G protein Gt, transducin) (bovine, UniProt P62871;P02698).
In experiment [2] the target is T1, bovine Gβ1γ1 dimer (β1γ1 subunits of …). As to the kind of experiment: SPR; same set-up as a5; affinity based (equilibrium) analysis. The conditions noted are these: both partners purified.
The target is the same in experiment [3]. Nature of the experiment: SPR; Biacore T100, 25 °C; Nb5 amine-coupled on CM5 (400-500 RU); Gβ1γ1 0.6-312 nM in 10 mM HEPES pH 7.5, 150 mM NaCl, 1 mM TCEP, 0.1% Tween-20; single-cycle kinetics, 1:1 Langmuir fit. The conditions noted are these: both partners purified. For orientation: SPR reads the build-up and loss of mass on a sensor chip optically.
Experiment [4] deals with T2, mouse Gβ4 subtype from brain (mouse (endogenous in C57BL/6J brain), UniProt P29387).
T2 construct: G protein beta subunit subtype 4, mouse brain; Extracted as Gβγ; the Gγ partner is not identified; source: endogenous, C57BL/6J mouse brain membranes, cholate-solubilized and partially purified (DEAE Sepharose)
Nature of the experiment: affinity purification with mass spectrometry; cholate-solubilized, DEAE-purified C57BL/6J mouse brain extract with a two molar excess of His-tagged Nb5, Ni2+-NTA then Talon resin; Gβ gel band digested in gel, LC-MS/MS. The conditions noted are these: one partner purified.

The target of experiment [5] is T3, mouse Gβ3 subtype from brain (mouse (endogenous in C57BL/6J brain), UniProt Q61011).
T3 construct: G protein beta subunit subtype 3, mouse brain; Extracted as Gβγ; the Gγ partner is not identified; source: endogenous, C57BL/6J mouse brain membranes, cholate-solubilized and partially purified (DEAE Sepharose)
Described as above. The conditions noted are these: one partner purified.

The target of experiment [6] is T4, mouse Gβ1 subtype from brain (mouse (endogenous in C57BL/6J brain), UniProt P62874).
T4 construct: G protein beta subunit subtype 1, mouse brain; Extracted as Gβγ; the Gγ partner is not identified; source: endogenous, C57BL/6J mouse brain membranes, cholate-solubilized and partially purified (DEAE Sepharose)
Described as above. The conditions noted are these: one partner purified.

Experiment [7] has as its target T5, mouse Gβ2 subtype from brain (mouse (endogenous in C57BL/6J brain), UniProt P62880).
T5 construct: G protein beta subunit subtype 2, mouse brain; Extracted as Gβγ; the Gγ partner is not identified; source: endogenous, C57BL/6J mouse brain membranes, cholate-solubilized and partially purified (DEAE Sepharose)
Described as above. The conditions noted are these: one partner purified.

Experiment [8] has as its target T6, Venus-Gβ2γ2 (Venus 156-239-Gβ2 + Venus 1-155-Gγ2) (UniProt P62879;P59768).
T6 construct: G protein beta subunit subtype 2, GenBank AF501883; G protein gamma subunit 2; also called Venus-Gβγ; Gβ2 + Gγ2 pair; source: HEK293T/17, transfected, in living cells; not shown: Venus 156-239 (with GGSGGG linker), N-terminal, kept
As to the kind of experiment: FRET or BRET; BRET between Venus-Gβγ and masGRK3ct-Nluc-HA in living HEK293T/17 cells, room temperature; GαoA, Nb5-Flag or Nb17-Flag co-transfected as competitor (plasmid ratio GαoA:Gβ:Gγ2:masGRK3ct:nanobody 2:1:1:1:12). The conditions noted are these: partners not purified. For orientation: Bioluminescence resonance energy transfer reports proximity on the nanometre scale.

For experiment [9], the target named is T7, Venus-Gβ1γ2 (Venus 156-239-Gβ1 + Venus 1-155-Gγ2) (UniProt P62873;P59768).
T7 construct: G protein beta subunit subtype 1; G protein gamma subunit 2; also called Venus-Gβγ; source: HEK293T/17, transfected, in living cells
The experiment is described as above. The conditions noted are these: partners not purified.

Experiment [10] concerns the target T8, Venus-Gβ4γ2 (Venus 156-239-Gβ4 + Venus 1-155-Gγ2) (UniProt Q9HAV0;P59768).
T8 construct: G protein beta subunit subtype 4, GenBank AF300648; G protein gamma subunit 2; also called Venus-Gβγ; Gβ4 + Gγ2 pair; source: HEK293T/17, transfected, in living cells; not shown: Venus 156-239 (with GGSGGG linker), N-terminal, kept
The description is as above. The conditions noted are these: partners not purified.

Experiment [11] addresses T9, Venus-Gβ3γ2 (Venus 156-239-Gβ3 + Venus 1-155-Gγ2) (UniProt P16520;P59768).
T9 construct: G protein beta subunit subtype 3, GenBank M31328; G protein gamma subunit 2; also called Venus-Gβγ; Gβ3 + Gγ2 pair; source: HEK293T/17, transfected, in living cells; not shown: Venus 156-239 (with GGSGGG linker), N-terminal, kept
The description is as above. The conditions noted are these: partners not purified.

B1: Nb6 (VHH)
VHH: QVQLVESGGGLVQAGGSLRLSCAASGSIFSINAMNWYRQAPGKRRELVAAITNGGSTNYADSVKGRFTISRDNAKNTVYLQMNSLKPEDTAVYYCNVGRSRGYWGQGTQVTVSS
B1: the binding result in experiment [1] is listed as “binds”.

B2: Nb7 (VHH)
VHH: QVQLVESGGGLVQAGESLRLSCAASGNIFSINATNWYRQAPGKQRELVAGITTRGSTNYADSVKGRFTISRDNAKNTVYLQMNSLKPEDTAVYYCNVGRSRGYWGQGTQVTVSS
For B2, in [1], the binding result is reported as “binds”.

B3: Nb5 (llama-derived nanobody against the Gβ1γ1 dimer), C-terminal His-tag (VHH)
VHH: QVQLVESGGGLVQAGGSLRLSCAASGSIFSINAMGWYRQAPGKQRELVAAITRGGRTNYADSVKGRFTLSRDNAKNTVYLQMNSLKPEDTAVYYCNVGRSRGYWGQGTQVTVSS
notes: Selected from a library in the phage display vector pMESy4; not shown: His6, C-terminal, kept
For orientation: Kd means the constant that tells how readily two partners part at equilibrium. Read a low Kd as a tighter complex. As usually defined, the koff is a measure of how fast the partners let go of each other. Read a high koff as fast dissociation. Usually kon stands for the rate constant with which the complex forms. For the molecule B3, the Kd was determined as 53 nM in [2] and 43 nM in experiment [3]. This molecule registered a koff in experiment [3] of 0.019 s⁻¹. Moreover, the kon in experiment [3] stood at 440000 M⁻¹ s⁻¹. Besides, the binding result in [4], in experiment [5], in [6] and in [7] was “binds” each time.

B4: Nb5-Flag (Nb5 with the 6 × His-tag replaced by the FLAG-tag) (VHH)
VHH: QVQLVESGGGLVQAGGSLRLSCAASGSIFSINAMGWYRQAPGKQRELVAAITRGGRTNYADSVKGRFTLSRDNAKNTVYLQMNSLKPEDTAVYYCNVGRSRGYWGQGTQVTVSS
notes: source: HEK293T/17, transfected, in living cells; CHO-APJ cells, transiently transfected (pcDNA3.1(+)); not shown: FLAG, C-terminal, kept
Turning to B4, the binding result in experiment [8], in [9], in [10] and in [11] was “binds” each time.
